Assay results published in IntAct's records for PubMed 33990585.

B1: Mitochondrial import receptor subunit TOM70 (Homo sapiens), O94826 (parent)
chain: MAASKPVEAAVVAAAVPSSGSGVGGGGTAGPGTGGLPRWQLALAVGAPLLLGAGAIYLWSRQQRRREARGRGDASGLKRNSERKTPEGRASPAPGSGHPEGPGAHLDMNSLDRAQAAKNKGNKYFKAGKYEQAIQCYTEAISLCPTEKNVDLSTFYQNRAAAFEQLQKWKEVAQDCTKAVELNPKYVKALFRRAKAHEKLDNKKECLEDVTAVCILEGFQNQQSMLLADKVLKLLGKEKAKEKYKNREPLMPSPQFIKSYFSSFTDDIISQPMLKGEKSDEDKDKEGEALEVKENSGYLKAKQYMEEENYDKIISECSKEIDAEGKYMAEALLLRATFYLLIGNANAAKPDLDKVISLKEANVKLRANALIKRGSMYMQQQQPLLSTQDFNMAADIDPQNADVYHHRGQLKILLDQVEEAVADFDECIRLRPESALAQAQKCFALYRQAYTGNNSSQIQAAMKGFEEVIKKFPRCAEGYALYAQALTDQQQFGKADEMYDKCIDLEPDNATTYVHKGLLQLQWKQDLDRGLELISKAIEIDNKCDFAYETMGTIEVQRGNMEKAIDMFNKAINLAKSEMEMAHLYSLCDAAHAQTEVAKKYGLKPPTL

Variants of: B1
Settings: with orf9b_sars2 orf9b

Row | Variant | effect of a mutation on the interaction
1 | D545A | decreasing interaction strength
2 | E477A | decreasing interaction strength
3 | E549I | decreasing interaction strength
4 | E549A | decreasing interaction strength
5 | H583Q | with no effect
